# Data published in IntAct's records for PubMed 31552791.
# B1: Ras-related protein Rab-38 (Homo sapiens), P57729 (parent)
# chain: MQAPHKEHLYKLLVIGDLGVGKTSIIKRYVHQNFSSHYRATIGVDFALKVLHWDPETVVRLQLWDIAGQERFGNMTRVYYREAMGAFIVFDVTRPATFEAVAKWKNDLDSKLSLPNGKPVSVVLLANKCDQGKDVLMNNGLKMDQFCKEHGFVGWFETSAKENINIDEASRCLVKHILANECDLMESIEPDVVKPHLTSTKVASCSGCAKS
# Variants of: B1
# Details: with lrrk2_human LRRK2, Q5S007
# Sequence of lrrk2_human LRRK2, Q5S007 (Q5S007 whole entry): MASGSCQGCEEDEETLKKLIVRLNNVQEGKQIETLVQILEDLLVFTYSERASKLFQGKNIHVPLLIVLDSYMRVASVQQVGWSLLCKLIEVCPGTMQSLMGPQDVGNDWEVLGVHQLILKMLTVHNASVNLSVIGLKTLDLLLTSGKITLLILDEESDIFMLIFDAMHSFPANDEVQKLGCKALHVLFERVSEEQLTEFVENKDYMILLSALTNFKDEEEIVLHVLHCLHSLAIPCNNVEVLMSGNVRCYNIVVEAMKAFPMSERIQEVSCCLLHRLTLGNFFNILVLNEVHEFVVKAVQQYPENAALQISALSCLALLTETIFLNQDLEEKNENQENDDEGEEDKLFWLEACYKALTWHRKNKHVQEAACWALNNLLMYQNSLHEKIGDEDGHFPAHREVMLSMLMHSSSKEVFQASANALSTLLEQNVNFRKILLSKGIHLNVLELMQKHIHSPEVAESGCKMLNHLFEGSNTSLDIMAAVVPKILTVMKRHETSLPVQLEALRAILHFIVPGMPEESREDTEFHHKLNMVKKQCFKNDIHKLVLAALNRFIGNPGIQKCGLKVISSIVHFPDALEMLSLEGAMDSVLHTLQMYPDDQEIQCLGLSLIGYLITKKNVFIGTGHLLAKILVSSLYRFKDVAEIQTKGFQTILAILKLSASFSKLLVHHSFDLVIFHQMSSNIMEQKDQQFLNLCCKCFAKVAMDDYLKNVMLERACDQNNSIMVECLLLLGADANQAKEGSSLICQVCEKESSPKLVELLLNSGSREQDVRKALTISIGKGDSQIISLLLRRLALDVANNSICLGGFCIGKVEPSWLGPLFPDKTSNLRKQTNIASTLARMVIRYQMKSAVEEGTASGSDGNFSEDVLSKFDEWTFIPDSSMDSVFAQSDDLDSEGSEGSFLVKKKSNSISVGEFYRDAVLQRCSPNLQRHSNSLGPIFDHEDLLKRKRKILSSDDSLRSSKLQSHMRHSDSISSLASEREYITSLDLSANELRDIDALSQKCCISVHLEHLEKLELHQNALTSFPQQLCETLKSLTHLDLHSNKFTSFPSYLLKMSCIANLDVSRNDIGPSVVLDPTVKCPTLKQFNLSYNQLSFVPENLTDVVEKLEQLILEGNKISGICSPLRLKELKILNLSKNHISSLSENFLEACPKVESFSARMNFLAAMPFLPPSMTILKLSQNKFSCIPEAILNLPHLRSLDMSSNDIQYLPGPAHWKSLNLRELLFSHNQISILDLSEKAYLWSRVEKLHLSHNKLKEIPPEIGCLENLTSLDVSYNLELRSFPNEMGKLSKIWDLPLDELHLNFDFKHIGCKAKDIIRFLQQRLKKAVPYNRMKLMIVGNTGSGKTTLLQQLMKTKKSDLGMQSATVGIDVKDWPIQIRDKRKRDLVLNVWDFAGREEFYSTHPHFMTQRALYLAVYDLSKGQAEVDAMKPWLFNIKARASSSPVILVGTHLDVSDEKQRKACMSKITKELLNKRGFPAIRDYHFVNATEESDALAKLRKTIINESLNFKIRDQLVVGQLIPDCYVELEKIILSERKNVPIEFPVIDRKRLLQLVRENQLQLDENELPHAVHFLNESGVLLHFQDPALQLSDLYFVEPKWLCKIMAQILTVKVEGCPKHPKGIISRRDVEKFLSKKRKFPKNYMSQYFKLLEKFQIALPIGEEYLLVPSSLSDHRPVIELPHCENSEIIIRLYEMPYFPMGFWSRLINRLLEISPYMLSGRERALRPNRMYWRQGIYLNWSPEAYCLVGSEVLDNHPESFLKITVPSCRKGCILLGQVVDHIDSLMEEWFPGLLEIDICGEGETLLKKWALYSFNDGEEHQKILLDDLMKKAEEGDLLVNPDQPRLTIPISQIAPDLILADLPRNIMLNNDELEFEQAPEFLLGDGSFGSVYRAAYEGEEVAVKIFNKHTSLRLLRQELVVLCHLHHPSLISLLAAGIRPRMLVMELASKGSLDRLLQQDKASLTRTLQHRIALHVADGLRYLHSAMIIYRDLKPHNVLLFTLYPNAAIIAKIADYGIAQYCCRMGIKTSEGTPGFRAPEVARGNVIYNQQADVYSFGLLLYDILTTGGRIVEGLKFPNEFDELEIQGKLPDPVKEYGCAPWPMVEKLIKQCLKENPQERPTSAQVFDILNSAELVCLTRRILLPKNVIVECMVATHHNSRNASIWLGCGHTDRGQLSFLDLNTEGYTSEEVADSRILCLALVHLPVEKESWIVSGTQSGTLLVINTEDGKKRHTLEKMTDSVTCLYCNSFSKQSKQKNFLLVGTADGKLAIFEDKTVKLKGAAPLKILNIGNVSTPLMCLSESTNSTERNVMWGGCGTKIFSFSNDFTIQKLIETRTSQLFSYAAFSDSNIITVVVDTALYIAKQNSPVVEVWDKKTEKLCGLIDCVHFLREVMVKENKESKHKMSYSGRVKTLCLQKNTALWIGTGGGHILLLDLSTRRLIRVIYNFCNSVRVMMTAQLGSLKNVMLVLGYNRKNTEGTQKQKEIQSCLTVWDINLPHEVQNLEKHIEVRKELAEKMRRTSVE
row,Variant,effect of a mutation on the interaction
1,I42A,with no effect
2,I42E,with no effect
3,R77Q;R81Q,with no effect
4,R39Q,decreasing interaction strength
